{"source": "patent US20100113291A1", "about": "(CENTRE NATIONAL DE LA RECHERCHE SCIENTIFIQUE, priority 2006, published 2010)", "type": "biochemical", "conditions": "acetoacetyl-CoA and NADPH both at 100 μM"}
{"molecule": "MabA-wt: wild-type protein MabA of Mycobacterium tuberculosis, SEQ ID NO: 1 (protein, listed as Mycobacterium tuberculosis) MTATATEGAKPPFVSRSVLVTGGNRGIGLAIAQRLAADGHKVAVTHRGSGAPKGLFGVECDVTDSDAVDRAFTAVEEHQGPVEVLVSNAGLSADAFLMRMTEEKFEKVINANLTGAFRVAQRASRSMQRNKFGRMIFIGSVSGSWGIGNQANYAASKAGVIGMARSIARELSKANVTANVVAPGYIDTDMTRALDERIQQGALQFIPAKRVGTPAEVAGVVSFLASEDASYISGAVIPVDGGMGMGH", "values": [{"measurement": "Vi", "result": "0.60 ± 0.01", "unit": "µmol/min/mg"}]}
